{"source": "patent US20040267001A1", "about": "“Genes encoding baeyer-villiger monooxygenases” (priority 2001, published 2004)", "data": [{"assay": "Conversion of cyclohexanone to caprolactone by E. coli clones expressing Rhodococcus erythropolis AN12 monooxygenases, GC-MS detection", "type": "cell-based, Escherichia coli", "details": "500 mg/L cyclohexanone, 0.1 mM IPTG, overnight at 24° C., GC-MS of ethylacetate extract", "procedure": "Following amplification, the gene fragments were cloned into pTrcHis-TOPO TA vectors with either an N-terminal tail or C-terminal tail, as provided by the vector sequence. These vectors were transformed into E. coli, with transformants grown in Luria-Bertani broth supplemented with ampicillin (100 ug/ml).\nThe chnB monooxygenase activity of each expressed enzyme from Example 9 was tested for activity according to its ability to convert cyclohexanone to caprolactone.\nClones containing the full length monooxygenase genes were transferred from LB agar plate to 5 mL of M63 minimal media (GIBCO) containing 10 mM glycerol, 50 ug/mL ampicillin, 0.1 mM IPTG, and 500 mg/L cyclohexanone. In addition to the clones containing full length monooxygenases, a plasmid without an insert and a “no cell” control were also assayed. The encoded monooxygenase sequences were expressed upon addition of IPTG to the culture media. The cultures were incubated overnight at room temperature (24° C.). Samples (1.25 mL) for analysis were taken immediately after inoculation and after overnight incubation; cells were removed by centrifugation (4° C., 13,000 rpm).\nCaprolactone formed by the action of the cloned monooxygenase was extracted from the aqueous phase with ethylacetate (1.0 ml aqueous/0.5 mL ethylacetate). Caprolactone was detected by gas chromotagraphy mass spectrometry (GC-MS) analysis, using an Agilent 6890 Gas chromatograph system.\nThe analysis of the ethylacetate phase was performed by injecting 1 uL of the ethyl acetate phase into the GC. The inlet temperature was 115° C. and the column temperature profile was 50° C. for 4 min and ramped to 250° C. at 20° C./min, for a total run time of 14 min. The compounds were separated with an Hewlet Packard HP-5MS (5% phenyl Methyl Siloxane) column (30 m length, 250 um diameter, and 0.25 um film thickness). The mass spectrometer was run in Electron Ionization mode. The background mass spectra was subtracted from the spectra at the retention time of caprolactone (9.857 min). Presence of caprolactone was confirmed by comparison of the test reactions to an authentic standard obtained from Aldrich Chemical Company (St. Louis, Mo.).\nResults of these assays are shown below in Table 7, in terms of the presence or absence of detectable caprolactone formation according to the activity of each expressed BV monooxygenase enzyme.", "values": [{"molecule": "ORF 11: Rhodococcus erythropolis AN12 ORF 11 chnB monooxygenase, protein SEQ ID NO:28, expressed in E. coli (protein, Rhodococcus erythropolis AN12) MSPSPLPSVCIIGAGPTGITTAKRMKEFGIPFDCYEASDEVGGNWYYKNPNGMSACYQSLHIDTSKWRLAFEDFPVSADLPDFPHHSELFQYFKDYVEHFGLRESIIFNTSVVAAERDANGLWTVTRSDGEVRTYDVLMVCNGHHWDPNIPDYPGEFDGVLMHSHSYNDPFDPIDMRGKKVVVVGMGNSGLDIASELGQRYLADKLIVSARRGVWVLPKYLGGVPGDKLITPPWMPRGLRLFLSRRFLGKNLGTMEGYGLPKPDHRPFEAHPSASGEFLGRAGSGDITFKPAITKLDGKQVHFADGTAEDVDVVVCATGYNISFPFFDDPNLLPDKDNRFPLFKRMMKPGIDNLFFMGLAQPMPTLVNFAEQQSKLVAAYLTGKYQLPSANEMQEITKADEAYFLAPYYKSPRHTIQLEFDPYVRNMNKEIAKGTKRAAASGNKLPVAARAAAHELEKADRA", "Formation of Caprolactone (ability to convert cyclohexanone to caprolactone)": "Detected"}, {"molecule": "ORF 9: Rhodococcus erythropolis AN12 ORF 9 chnB monooxygenase, protein SEQ ID NO:24, expressed in E. coli (protein, Rhodococcus erythropolis AN12) MVDIDPTSGPSAGDEETRTRRTRVVVIGAGFGGIGTAVRLKQSGIDDFVVLERAAEPGGTWQVNTYPGAQCDIPSILYSFSFAPNPNWTRLYPLQPEIYDYLRDCVHRFGLAGHFHCNQDVTEASWDEQAQIWRVHTAETVWEAQFLVAATGPFSAPATPDLPGLESFRGQMFHTADWNHDHDLRGERIAVVGTGASAVQIIPRLQPLADTLTVFQRTPTWILPHPDQPMTGWPSALFERVPLTQRLARKGLDLLQEALVPGFVYKPSLLKGLAALGRAHLRRQVRDPELRAKLLPHYAFGCKRPTFSNTYYPALASPNVEVVTDGIVEVQERGVLTADGAFREVDTIVMGTGFRMGDNPSFDTIRGQDGRSLAQTWNGSAEAFLGTTISGFPNFFMILGPNSVVYTSQVVTIEAQVEYIVSCILQMDERGIGSIDVRADVQREFVRATDRRLATSVWNAGGCSSYYLVDGGRNYTFYPGFNRSFRARTKRADLAHYAQVQPVSSAALTTARETVRSR", "Formation of Caprolactone (ability to convert cyclohexanone to caprolactone)": "Detected"}, {"molecule": "ORF 19: Rhodococcus erythropolis AN12 ORF 19 chnB monooxygenase, protein SEQ ID NO:44, expressed in E. coli (protein, Rhodococcus erythropolis AN12) MTTQKALTTVDAIVIGAGFGGIYAVHKLANELGLTTVGFDKADGPGGTWYWNRYPGALSDTESHVYRFSFDRDLLQDGTWKHTYTTQPEILEYLEDVVSRFDLRRHFHFGTAVESAVYLEDEQLWEVTTDTGEIYRATYVVNAVGLLSAINRPDLPGLETFEGETIHTAAWPEGKDLTGRRVGVIGTGSTGQQVITALAPTVEHLTVFVRTPQYSVPVGKRAVTDEQIDAVKADYENIWTQVKRSSVAFGFEESTVPAMSVSAEERLRVYEEAWEQGGGFRFMFGTFGDIATDEEANETAASFIRSKITAMIEDPETARKLTPTGLFARRPLCDDGYFQVFNRPNVEAVAIKENPIREITAKGVVTEDGVLHKLDVLVLATGFDAVDGNYRRMTISGRGGLNINDHWDGQPTSYLGIATANFPNWFMVLGPNGPFTNLPPSIETQVEWISDTIGYVERTGVRAIEPTPEAESAWTATCTDIANMTVFTKVDSWIFGANVPGKKPSVLFYLGGLGNYRAVLADVTEGGYQGFALKTADTVDA", "Formation of Caprolactone (ability to convert cyclohexanone to caprolactone)": "Detected"}, {"molecule": "ORF 16: Rhodococcus erythropolis AN12 ORF 16 chnB monooxygenase, protein SEQ ID NO:38, expressed in E. coli (protein, Rhodococcus erythropolis AN12) VKLPEHVETLIVGAGFAGMGLAARMLRDNRTADVVLIERGADIGGTWRDNTYPGCACDVPTALYSYSFAPSADWSHTFARQPEIYDYLKKVAADTGIGDRVILNCELEAAVWDEDAALWRVRTSLGSLTVKALVAATGALSTPKIPDFPGLDQFSGTTFHSATWNHEHELRGERVAVIGTGASAVQFVPEIADPAAHVTVFQRTPAWVIPRMDRTLPAAQKAVYSRIPATQKVVRGAVYGFRELLGAAMSHATWVLPAFEAAARLHLRRQVKDPELRRKLTPDFTIGCKRMLLSNDWLRTLDRADVSLVDSGLVSVTEGGVVDGHGVEHKVDTIIFATGFTPTEPPVAHLITGKRGETLAAHWNGSPNAYKGTAVSGFPNLFLMYGPNTNLGHSSIVYMLESQAEYVNDALNTMKRERLDALDVNESVQVHYNKGIQHELQHTVWNKGGCSSWYIDPEGRNSVQWPTFTFKFRSLLEHFDRENYSARKIESVQA", "Formation of Caprolactone (ability to convert cyclohexanone to caprolactone)": "Detected"}, {"molecule": "ORF 12: Rhodococcus erythropolis AN12 ORF 12 chnB monooxygenase, protein SEQ ID NO:30, expressed in E. coli (protein, Rhodococcus erythropolis AN12) VNNESDHFEVVIIGGGISGIGAAIHLQRLGIDNFALLEKADSLGGTWRANTYPGCACDVPSGLYSYSFAANPDWTRLFAEQPEIREYIENTAGTHGVDKHVRFGVEMLSARWDASQSLWKITTSSGELTARFVIAAAGPWNEPLTPAIPGLEAFEGEVFHSSQWNHDYDLTGKLVAVVGTGASAVQFVPRIVSQVSALHLYQRTAQWVLPKPDHYVPRIERSVMRFVPGAQKALRSIEYGIMEALGLGFRNPWILRIVQKLGSAQLRLQVRDPKLRKALTPDYTLGCKRLLMSNSYYPALGKPNVSVHANAVEQIRGNTVIGADGVEAEVDAIIFGTGFHILDMPIASKVFDGEGRSLDDHWQGSPQAYFGSAVSGFPNAFILLGPSLGTGHTSAFMILEAQLNYVAQAIGHARRHGWQTIDVREEVQAAFNSQVQEALGTTVYNAGGCESYFFDVNGRNSFNWPWSSGAMRRRLRDFDPYAYNHTSNPESDNTPPEPTPSEPTPSEPTPSEPTTSPEPEYTA", "Formation of Caprolactone (ability to convert cyclohexanone to caprolactone)": "Detected"}, {"molecule": "ORF 18: Rhodococcus erythropolis AN12 ORF 18 chnB monooxygenase, protein SEQ ID NO:42, expressed in E. coli (protein, Rhodococcus erythropolis AN12) MSSRVNDGHIAIIGTGFSGLCMAIELKKKGIDDFVLYERADDVGGTWRDNTYPGAACDVPSVLYSYSFAQNPNWTRIFPPWSELLDYLRSVAAQYDLLPHIRFGVEVSEMRFDEDRLRWNIQFASGESVTAAVVVNGSGGLSNPYIPQLPGLESFEGAAFHSAKWRHDLDMSGRRVAVIGSGASAIQFVPEIAPHTETLHVFQRSPNWVMPRGDAALSPATRERFSRRPYRQRWLRWRTYWAFEKLASAFLGNRKLVEQYRSQALANLQQQVPDSDLRQKVTPDYDPGCKRRLISDDWYPALQRENVHLNTSGVSEIRPHSIIDSEGAEHEVDTLIFATGFQATSFLAPMKVFGREGVELSDSWREGAATKLGLASAAFPNLWFLNGPNTGLGHNSIIFMIEAQARYIASAVQYMRRKSITALELDRTVQTGSYAATQERMRRTVWASGGCDSWYQSADGRIDTLWPASTIEYWLRTRLFRKSDFHALTTGKG", "Formation of Caprolactone (ability to convert cyclohexanone to caprolactone)": "Detected"}, {"molecule": "ORF 17: Rhodococcus erythropolis AN12 ORF 17 chnB monooxygenase, protein SEQ ID NO:40, expressed in E. coli (protein, Rhodococcus erythropolis AN12) MTQHVDVLIIGAGLSGIGAACHLIREQTGSTYAILERRENIGGTWDLFKYPGIRSDSDMLTFGFGFRPWIGTKVLADGASIRDYVEETAKEYGVTDHINFGRKVVAMDFDRTAAQWSVTVLVEATGETETWTANVLVGACGYYNYDKGYRPAFPGEDDFRGQIVHPQHWPEDLDYTGKKVVVIGSGATAITLIPSMAPTAGHVTMLQRSPTWIQALPSEDPVAKGLKLARVPDQIAYKIGRARNIALQRASFQLSRTNPKLAKKLFLAQIRLQLGKNVDLRHFTPSYNPWDQRLCVVPNGDLFKVLKSGKADIVTDRIATFTEKGIVTESGREIEADVIVTATGLNVQILGGATMSIDGEPVKLNETVAYKSVLYSDIPNFLMILGYTNASWTLKADLAASYLCRVLKIMRDRSYTTFEVHAEPEDFAEESLMGGALTSGYIQRGDGEMPRQGARGAWKVVNNYYRDRKLMHDAEIEDGVLQFSKVDIAVVPDSKVASA", "Formation of Caprolactone (ability to convert cyclohexanone to caprolactone)": "Detected"}]}]}
